Values quoted from earlier work, collected in paper PMC6293969.

Legend:
CLK1 (Homo sapiens) = CLK1 (Homo sapiens) (UniProt P49759)
SRSF1 (Homo sapiens) = SRSF1 (Homo sapiens) (UniProt Q07955)
Sequence of UniProt Q07955 (Q07955 2-248): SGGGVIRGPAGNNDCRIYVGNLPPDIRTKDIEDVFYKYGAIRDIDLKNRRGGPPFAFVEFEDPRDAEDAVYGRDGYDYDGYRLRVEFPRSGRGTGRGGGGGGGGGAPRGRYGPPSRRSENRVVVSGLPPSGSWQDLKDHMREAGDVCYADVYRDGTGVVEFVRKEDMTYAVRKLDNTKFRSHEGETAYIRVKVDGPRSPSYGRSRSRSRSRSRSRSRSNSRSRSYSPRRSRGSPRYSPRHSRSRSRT

Sequence of UniProt P49759 (P49759 whole entry): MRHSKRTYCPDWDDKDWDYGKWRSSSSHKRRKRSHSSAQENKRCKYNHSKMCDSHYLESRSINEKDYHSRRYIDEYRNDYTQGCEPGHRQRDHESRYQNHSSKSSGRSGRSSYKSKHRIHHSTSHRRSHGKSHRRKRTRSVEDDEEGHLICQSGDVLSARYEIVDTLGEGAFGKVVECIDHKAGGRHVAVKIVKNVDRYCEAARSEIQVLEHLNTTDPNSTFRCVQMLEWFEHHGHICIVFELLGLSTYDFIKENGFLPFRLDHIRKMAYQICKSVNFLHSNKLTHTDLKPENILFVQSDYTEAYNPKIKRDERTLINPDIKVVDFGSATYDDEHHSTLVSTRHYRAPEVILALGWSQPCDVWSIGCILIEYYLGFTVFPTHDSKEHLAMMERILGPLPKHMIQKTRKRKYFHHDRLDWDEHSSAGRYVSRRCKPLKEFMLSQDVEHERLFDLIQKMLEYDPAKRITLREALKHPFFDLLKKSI

Kd (CLK1 (Homo sapiens)): 20 nM
Kd (SRSF1 (Homo sapiens)): 100 nM
Substance: SRPK1 (from UniProt Q96SB4)
